Measured values: patent US20240317859A1 (FOUNDATION FOR BIOMEDICAL RESEARCH AND INNOVATION AT KOBE, published 2024)
Like-named read-outs stand apart in the source and are kept apart here.

Assays:
[1] = molecular target: T1, human PD-1 (wild-type), expressed on cells (human, UniProt Q15116 25-288); test: cell-based or functional assay
[2] = molecular target: Human PD-1/PDCD1 Protein (PD-1) (human, UniProt Q15116 25-167, limits assumed); test: SPR, Biacore 8K; PD-1 captured by anti-His antibody, antibody in flow
Chain of Human PD-1/PDCD1 Protein (PD-1) (Q15116 25-167 limits assumed): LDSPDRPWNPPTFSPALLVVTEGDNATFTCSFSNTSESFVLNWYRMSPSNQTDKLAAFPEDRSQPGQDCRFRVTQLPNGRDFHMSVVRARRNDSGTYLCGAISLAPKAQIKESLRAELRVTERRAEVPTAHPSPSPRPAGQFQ
Experimental: The binding affinity of each antibody to human PD-1 was measured with Biacore 8K (Cytiva). Briefly, anti-His Tag antibody was immobilized by amine coupling using Amine Coupling Kit and His Capture Kit, onto 8 channels of a sensor chip (provided with 16 flow cells; one channel consisting of two flow cells) which had carboxymethyl dextran immobilized on a gold film. The immobilization was performed by feeding an activation solution (NHS and EDC mixed in equal amounts) at a flow rate of 10 μl/min for 7 minutes, an immobilization solution at a flow rate of 5 μl/min for 7 minutes, and 1 M ethanolamine hydrochloride-NaOH (pH 8.5) at a flow rate of 10 μl/min for 7 minutes. The buffer used at the time of immobilization was 1×HBS-EP+ Buffer. After the immobilization and before applying a sample, Human PD-1/PDCD1 Protein (PD-1) adjusted to 1 μg/ml with 1×HBS-EP+ Buffer was fed to one of the two flow cells of each channel in an amount of 20 μl at a flow rate of 10 μl/min to thereby capture PD-1 on the sensor chip. As regards the other flow cell, 1×HBS-EP+ Buffer was fed in the same manner to prepare a control flow cell. Each antibody was adjusted to 16 nM with 1×HBS-EP+ Buffer, and then subjected to 2-fold 7-step serial dilution using 1×HBS-EP+ Buffer. The resultant sample solution (30 μl) was fed to each flow cell at a flow rate of 10 μl/min and the response was measured. After subtracting the response of control flow cell from the response of the flow cell which was allowed to capture the ligand, KD value was calculated by curve fitting using Biacore 8K Evaluation Software.

[3] = molecular target: T1, human PD-1 (wild-type), expressed on …; test: cell-based or functional assay; remark: listed apart in the source
[4] = molecular target: T1, human PD-1 (wild-type), expressed on …; test: cell-based or functional assay; remark: listed apart in the source

T1 sequence (Q15116 25-288 limits assumed): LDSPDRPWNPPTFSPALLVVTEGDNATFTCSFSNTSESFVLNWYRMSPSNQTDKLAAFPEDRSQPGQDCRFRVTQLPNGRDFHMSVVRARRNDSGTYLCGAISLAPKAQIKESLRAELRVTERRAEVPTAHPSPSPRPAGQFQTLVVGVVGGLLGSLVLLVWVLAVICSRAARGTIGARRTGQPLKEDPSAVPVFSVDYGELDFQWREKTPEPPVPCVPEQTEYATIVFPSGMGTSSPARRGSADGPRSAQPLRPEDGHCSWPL

Binder	Cell-cell contact assay [1]	Kd [2]	Cell-cell contact assay [3]	Cell-cell contact assay [4]
HM242-B2 (antibody, human IgG1, V domains shown, also called humanized HM242, VH ver.B / VL ver.2) VH: QVQLVQSGPEVKKPGASVKVVCKASGYTFTSYYIQWVRQVPGQGLEWMGWIYPGDGTTKYNEKFKGKTTLTIDKSTRTAYMELRSLRSDDTAVYYCASYYGSYFDYWGQGTLVTVSS VL: DIQMTQSPSSLSASVGDRVTITCRASQDISNYLNWYQQKPDGTVTLLIYYTSKLHSGVPSRFSGSGSGTDYTLTISSLQPEDFATYYCQQSSTLPFTFGQGTKLEIK		< 31.5 pM	8.83 ng/mL	
humanized HM242-C3-IgG1-K322A (antibody, V domains shown) VH: QVQLVQSGPEVKKPGASVKVVCKASGYTFTSYYIQWVKQRPGQGLEWIGWIYPGDGTTKYNEKFKGRVTMTIDKSTRTAYMELRSLRSDDTAVYYCASYYGSYFDYWGQGTLVTVSS VL: DIQMTQSPSSLSASVGDRVTITCRASQDISNYLNWYQQKPGKAPKLLIYYTSKLHSGVPSRFSGSGSGTDYTLTISSLQPEDFATYYCQQSSTLPFTFGQGTKLEIKR		< 18.6 pM	23.7 ng/mL	
HM242-B1 (antibody, human IgG1, V domains shown, also called humanized HM242, VH ver.B / VL ver.1) VH: QVQLVQSGPEVKKPGASVKVVCKASGYTFTSYYIQWVRQVPGQGLEWMGWIYPGDGTTKYNEKFKGKTTLTIDKSTRTAYMELRSLRSDDTAVYYCASYYGSYFDYWGQGTLVTVSS VL: DIQMTQTTSSLSASVGDRVTITCRASQDISNYLNWYQQKPDGTVTLLIYYTSKLHSGVPSRFSGSGSGTDYTLTISSLEQKDFATYYCQQSSTLPFTFGQGTKLEIK		< 44.8 pM	7.15 ng/mL	
HM242-A1 (antibody, human IgG1, V domains shown, also called humanized HM242, VH ver.A / VL ver.1) VH: QVQLVQSGPELVKPGASVKVVCKASGYTFTSYYIQWVKQRPGQGLEWIGWIYPGDGTTKYNEKFKGKTTLTIDKSTRTAYMELRSLRSDDTAVYYCASYYGSYFDYWGQGTLVTVSS VL: DIQMTQTTSSLSASVGDRVTITCRASQDISNYLNWYQQKPDGTVTLLIYYTSKLHSGVPSRFSGSGSGTDYTLTISSLEQKDFATYYCQQSSTLPFTFGQGTKLEIK		< 35.6 pM	13.1 ng/mL	
HM242-A2 (antibody, human IgG1, V domains shown, also called humanized HM242, VH ver.A / VL ver.2) VH: QVQLVQSGPELVKPGASVKVVCKASGYTFTSYYIQWVKQRPGQGLEWIGWIYPGDGTTKYNEKFKGKTTLTIDKSTRTAYMELRSLRSDDTAVYYCASYYGSYFDYWGQGTLVTVSS VL: DIQMTQSPSSLSASVGDRVTITCRASQDISNYLNWYQQKPDGTVTLLIYYTSKLHSGVPSRFSGSGSGTDYTLTISSLQPEDFATYYCQQSSTLPFTFGQGTKLEIK		< 40.8 pM	16.7 ng/mL	
HM242-B3 (antibody, human IgG1, V domains shown, also called humanized HM242, VH ver.B / VL ver.3) VH: QVQLVQSGPEVKKPGASVKVVCKASGYTFTSYYIQWVRQVPGQGLEWMGWIYPGDGTTKYNEKFKGKTTLTIDKSTRTAYMELRSLRSDDTAVYYCASYYGSYFDYWGQGTLVTVSS VL: DIQMTQSPSSLSASVGDRVTITCRASQDISNYLNWYQQKPGKAPKLLIYYTSKLHSGVPSRFSGSGSGTDYTLTISSLQPEDFATYYCQQSSTLPFTFGQGTKLEIK		< 30.7 pM	20.8 ng/mL	
HM268-M8 (antibody, human IgG1, V domains shown, also called humanized HM268, VH ver.M / VL ver.8) VH: QVQLVQSGPEVKKPGASVKVVCKASGYTFTSYYIQWVRQVPGQGLEWMGWIYFGDASTKYNEKFKGRVTMTADTSTSTAYMELRSLRSDDTAVYYCASYYGSYFDYWGQGTTVTVSS VL: DIQMTQSPSSLSASVGDRVTITCRASQDISNYLNWYQQKPDGTVKLLIYSTSRLHSGVPSRFSGSGSGTDYTLTISSLQPEDFATYYCQQGSTLPFTFGQGTKLEIK		3.59 pM		75.8 ng/mL
HM242-A3 (antibody, human IgG1, V domains shown, also called humanized HM242, VH ver.A / VL ver.3) VH: QVQLVQSGPELVKPGASVKVVCKASGYTFTSYYIQWVKQRPGQGLEWIGWIYPGDGTTKYNEKFKGKTTLTIDKSTRTAYMELRSLRSDDTAVYYCASYYGSYFDYWGQGTLVTVSS VL: DIQMTQSPSSLSASVGDRVTITCRASQDISNYLNWYQQKPGKAPKLLIYYTSKLHSGVPSRFSGSGSGTDYTLTISSLQPEDFATYYCQQSSTLPFTFGQGTKLEIK		< 21.7 pM	18.8 ng/mL	

Next, values leading:

Cell-cell contact assay [1]	Kd [2]	Cell-cell contact assay [3]	Cell-cell contact assay [4]	Binder
137 ng/mL	3480 pM			HM297-I6 (antibody, human IgG1, V domains shown, also called humanized HM297, VH ver.I / VL ver.6) VH: QVQLVQSGPEVKKPGASVKVVCKASGYTFTDYNVDWVRQVPGQGLEWMGDIDPNNGGTIYNQKFKDRVTMTVDTSTRTAYMELRSLRSDDTAVYYCARWRGAMDYWGQGTLVTVSS VL: DIQMTQSPSSLSASVGDRVTITCRASQDIDNYLKWYQQKPGKAPKLLIYDTSRLHSGVPSRFSGSGSGTDYTLTISSLQPEDFATYYCQQGYTLPWTFGQGTKLEIK
	< 17.9 pM	19 ng/mL		HM242-C1 (antibody, human IgG1, V domains shown, also called humanized HM242, VH ver.C / VL ver.1) VH: QVQLVQSGPEVKKPGASVKVVCKASGYTFTSYYIQWVKQRPGQGLEWIGWIYPGDGTTKYNEKFKGRVTMTIDKSTRTAYMELRSLRSDDTAVYYCASYYGSYFDYWGQGTLVTVSS VL: DIQMTQTTSSLSASVGDRVTITCRASQDISNYLNWYQQKPDGTVTLLIYYTSKLHSGVPSRFSGSGSGTDYTLTISSLEQKDFATYYCQQSSTLPFTFGQGTKLEIK
	< 21.1 pM	18.1 ng/mL		HM242-C2 (antibody, human IgG1, V domains shown, also called humanized HM242, VH ver.C / VL ver.2) VH: QVQLVQSGPEVKKPGASVKVVCKASGYTFTSYYIQWVKQRPGQGLEWIGWIYPGDGTTKYNEKFKGRVTMTIDKSTRTAYMELRSLRSDDTAVYYCASYYGSYFDYWGQGTLVTVSS VL: DIQMTQSPSSLSASVGDRVTITCRASQDISNYLNWYQQKPDGTVTLLIYYTSKLHSGVPSRFSGSGSGTDYTLTISSLQPEDFATYYCQQSSTLPFTFGQGTKLEIK
	103 pM	24.8 ng/mL		HM242-D1 (antibody, human IgG1, V domains shown, also called humanized HM242, VH ver.D / VL ver.1) VH: QVQLVQSGPEVKKPGASVKVVCKASGYTFTSYYIQWVRQVPGQGLEWMGWIYPGDGTTKYNEKFKGRVTMTIDTSTSTAYMELRSLRSDDTAVYYCASYYGSYFDYWGQGTLVTVSS VL: DIQMTQTTSSLSASVGDRVTITCRASQDISNYLNWYQQKPDGTVTLLIYYTSKLHSGVPSRFSGSGSGTDYTLTISSLEQKDFATYYCQQSSTLPFTFGQGTKLEIK
	< 49.2 pM	31.5 ng/mL		humanized HM242-D3-IgG1-K322A (antibody, V domains shown) VH: QVQLVQSGPEVKKPGASVKVVCKASGYTFTSYYIQWVRQVPGQGLEWMGWIYPGDGTTKYNEKFKGRVTMTIDTSTSTAYMELRSLRSDDTAVYYCASYYGSYFDYWGQGTLVTVSS VL: DIQMTQSPSSLSASVGDRVTITCRASQDISNYLNWYQQKPGKAPKLLIYYTSKLHSGVPSRFSGSGSGTDYTLTISSLQPEDFATYYCQQSSTLPFTFGQGTKLEIKR
	< 60.3 pM	33.3 ng/mL		HM242-D2 (antibody, human IgG1, V domains shown, also called humanized HM242, VH ver.D / VL ver.2) VH: QVQLVQSGPEVKKPGASVKVVCKASGYTFTSYYIQWVRQVPGQGLEWMGWIYPGDGTTKYNEKFKGRVTMTIDTSTSTAYMELRSLRSDDTAVYYCASYYGSYFDYWGQGTLVTVSS VL: DIQMTQSPSSLSASVGDRVTITCRASQDISNYLNWYQQKPDGTVTLLIYYTSKLHSGVPSRFSGSGSGTDYTLTISSLQPEDFATYYCQQSSTLPFTFGQGTKLEIK
	< 51 pM	13.7 ng/mL		chimeric HM242-IgG1-K322A (antibody, Mouse Fab region with the Fc region of human IgG1-K322A) heavy: not shown light: DIQMTQTTSSLSASLGDRVTISCRASQDISNYLNWYQQKPDGTVTLLIYYTSKLHSGVPSRFSGSGSGTDYSLTITNLEQKDFATYFCQQSSTLPFTFGGGTKLEIKRTVAAPSVFIFPPSDEQLKSGTASVVCLLNNFYPREAKVQWKVDNALQSGNSQESVTEQDSKDSTYSLSSTLTLSKADYEKHKVYACEVTHQGLSSPVTKSFNRGEC
